# Measured values published in patent US20230242673A1.
# Target: LDLR expressed in HepG2 cells (UniProt P01130)
# Experiment: cell-based or functional assay
# Sequence of LDLR expressed in HepG2 cells (P01130 22-860 limits assumed): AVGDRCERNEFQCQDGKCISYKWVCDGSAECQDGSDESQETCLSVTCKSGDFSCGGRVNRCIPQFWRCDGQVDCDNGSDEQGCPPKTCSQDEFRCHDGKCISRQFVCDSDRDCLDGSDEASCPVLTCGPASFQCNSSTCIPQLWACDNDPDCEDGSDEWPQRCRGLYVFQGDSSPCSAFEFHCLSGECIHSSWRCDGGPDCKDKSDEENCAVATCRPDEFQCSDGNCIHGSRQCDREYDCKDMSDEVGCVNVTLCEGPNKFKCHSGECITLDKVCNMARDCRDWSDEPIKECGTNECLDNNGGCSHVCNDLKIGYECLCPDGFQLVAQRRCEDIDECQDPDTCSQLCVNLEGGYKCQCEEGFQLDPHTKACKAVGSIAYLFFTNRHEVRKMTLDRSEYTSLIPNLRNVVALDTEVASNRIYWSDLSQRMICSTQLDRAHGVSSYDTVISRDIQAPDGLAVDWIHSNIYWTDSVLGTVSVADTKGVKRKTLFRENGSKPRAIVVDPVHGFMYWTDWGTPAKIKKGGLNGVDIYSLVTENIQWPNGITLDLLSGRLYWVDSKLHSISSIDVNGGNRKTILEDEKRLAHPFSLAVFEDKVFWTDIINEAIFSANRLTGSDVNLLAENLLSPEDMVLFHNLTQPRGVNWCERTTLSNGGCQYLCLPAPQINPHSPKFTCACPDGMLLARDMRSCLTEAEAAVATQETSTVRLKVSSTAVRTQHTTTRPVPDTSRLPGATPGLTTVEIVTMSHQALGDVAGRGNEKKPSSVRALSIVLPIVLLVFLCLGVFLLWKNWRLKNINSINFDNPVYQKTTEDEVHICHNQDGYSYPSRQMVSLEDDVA
substance,measurement,value
"PCSK9 Ag (human PCSK9 protein, Acro Cat No: PC9-H5223) (from UniProt Q8NBP7 31-692)","LDL uptake by HepG2 cells, fluorescence value of LDL BODIPY (485 Ex/535 Em)",80
